Source: US20190381150

Biological target: Human lactoferrin (lactoferrin from human milk, Sigma) (UniProt P02788)
Sequence (P02788 20-710): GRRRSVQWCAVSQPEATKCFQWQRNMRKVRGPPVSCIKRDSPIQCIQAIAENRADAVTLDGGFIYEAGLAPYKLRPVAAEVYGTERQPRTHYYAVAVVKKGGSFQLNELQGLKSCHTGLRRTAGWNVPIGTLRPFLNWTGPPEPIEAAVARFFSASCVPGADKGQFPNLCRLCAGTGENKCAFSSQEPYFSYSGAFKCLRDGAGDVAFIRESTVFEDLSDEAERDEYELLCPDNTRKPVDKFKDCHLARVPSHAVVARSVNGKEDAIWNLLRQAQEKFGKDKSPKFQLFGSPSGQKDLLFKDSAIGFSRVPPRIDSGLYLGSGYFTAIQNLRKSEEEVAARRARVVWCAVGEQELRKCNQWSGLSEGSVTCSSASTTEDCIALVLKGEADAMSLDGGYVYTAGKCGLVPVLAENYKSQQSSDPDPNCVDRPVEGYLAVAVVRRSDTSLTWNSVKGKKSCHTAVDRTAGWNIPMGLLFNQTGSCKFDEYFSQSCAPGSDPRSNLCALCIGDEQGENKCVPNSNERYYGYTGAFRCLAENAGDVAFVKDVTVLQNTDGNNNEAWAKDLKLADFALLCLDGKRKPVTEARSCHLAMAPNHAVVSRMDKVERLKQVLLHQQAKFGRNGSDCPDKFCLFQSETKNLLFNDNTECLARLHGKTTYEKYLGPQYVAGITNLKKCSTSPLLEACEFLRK

EndoBI-1 D184N (Asp 184 of EndoBI-1 mutated to Asn184), recombinant, signal sequence and transmembrane domains deleted
shift in molecular weight on SDS-PAGE of human milk after overnight incubation: No change was observed when the milk sample was incubated with EndoBI-1 D184N
